B1: GST-16E7: HPV16 E7 protein expressed as a glutathione-S-transferase (GST) fusion protein (protein)
chain: MHGDTPTLHEYMLDLQPETTDLYCYEQLNDSSEEEDEIDGPAGQAEPDRAHYNIVTFCCKCDSTLRLCVQSTHVDIRTLEDLLMGTLGIVCPICSQKP
modifications: left off: a dimerising Fc or GST

Legend:
CDK2 [1] = target: T1, CDK2 (Homo sapiens, UniProt P20248+P24941); type: biochemical
T1 construct: hemagglutinin (HA); made in house; host or cells: Sf9 or High Five insect cells, baculovirus co-infection

HA-CDK2 = target: T2, HA-CDK2 (Homo sapiens, UniProt P24941); type: binding
T2 construct: made in house; host or cells: High Five insect cells, baculovirus

CDK2 [2] = experiment: Effect of E7 on p21/p27 inhibition of CDK2 kinase activity; type: biochemical
Procedure: Histone H1 was chosen as the substrate in the kinase assays since pRb, a physiological CDK2 substrate, is known to bind E7 and could interfere with the assay.
For some assays, HEK293 cell lysate (100 μg total protein, prepared as described above) was preincubated with purified GST-31E7 protein in PBS in the presence of p13 agarose beads (Calbiochem) at 4° C. for one hour, and subsequently incubated with purified His-p27 for 30 min at 4° C. Preincubation was carried out to permit protein complex formation, while p13 agarose beads bind cyclin-dependent kinase complexes to facilitate purification [Dreatta, et al., Cell 56:829-838 (1989)]. After collection and washing four times with PBS, the beads were washed two additional times with KIP buffer containing 50 mM Tris-Cl, pH 7.5, 10 mM MgCl2, 5 mM EGTA, 2 mM DTT, and 10 μM ATP. […] Phosphorylated proteins were analyzed by SDS-PAGE followed by autoradiography and PhosphorImager® analysis.
In other assays, purified cyclin A- or cyclin E-complexed CDK2 was included. […] Kinase activity was measured following addition of 1 μl of 2 mCi/ml [γ-^32P] […] The reaction was stopped by adding SDS sample buffer, and phosphorylated proteins were analyzed by SDS-PAGE followed by autoradiography and PhosphorImager® analysis.

GST-cyclinA = target: T3, GST-cyclinA (Homo sapiens, UniProt P20248); type: binding; conditions: purified HPV16E7 4 μg; SDS-PAGE and immunoblotting
T3 construct: made in house; host or cells: High Five insect cells, baculovirus

cyclin A/CDK2 = target: T4, cyclin A/CDK2 (Homo sapiens, UniProt P20248+P24941); type: biochemical
T4 construct: hemagglutinin (HA); made in house; host or cells: Sf9 or High Five insect cells, baculovirus co-infection

MAP kinase 1 = experiment: Kinase assay MAP kinase 1; type: biochemical
Procedure: (§1) In an attempt to determine if the E7 effects on kinase activity were specific for members of the cyclin-dependent kinase family, various kinase/substrate combinations were examined for enhanced activity in the presence of E7.
(§2) When HPV16-E7 was added to either cyclinA/CDK2 or cyclinE/CDK2 using histoneH1 as the substrate, a large increase (26-fold and 13-fold) over controls was noted as described above. When the retinoblastoma (pRb) protein was used as a substrate for cyclinE/CDK2 a 1.9-fold increase over background was noted.

CDK5 complexed with p25 = CDK5 complexed with p25 (Homo sapiens, UniProt Q00535); experiment: Kinase assay CDK5/p25, histone H1 phosphorylation; type: biochemical; conditions: over controls
CDC2/cyclinB = CDC2/cyclinB (Homo sapiens, UniProt P06493); experiment: Kinase assay CDC2/cyclinB; type: biochemical
Procedure: as §1, §2

cyclin E/CDK2 = target: T5, cyclin E/CDK2 (Homo sapiens, UniProt P24941); type: biochemical
T5 construct: hemagglutinin (HA); made in house; host or cells: Sf9 or High Five insect cells, baculovirus co-infection

T4 sequence (P20248 whole entry, one chain of several): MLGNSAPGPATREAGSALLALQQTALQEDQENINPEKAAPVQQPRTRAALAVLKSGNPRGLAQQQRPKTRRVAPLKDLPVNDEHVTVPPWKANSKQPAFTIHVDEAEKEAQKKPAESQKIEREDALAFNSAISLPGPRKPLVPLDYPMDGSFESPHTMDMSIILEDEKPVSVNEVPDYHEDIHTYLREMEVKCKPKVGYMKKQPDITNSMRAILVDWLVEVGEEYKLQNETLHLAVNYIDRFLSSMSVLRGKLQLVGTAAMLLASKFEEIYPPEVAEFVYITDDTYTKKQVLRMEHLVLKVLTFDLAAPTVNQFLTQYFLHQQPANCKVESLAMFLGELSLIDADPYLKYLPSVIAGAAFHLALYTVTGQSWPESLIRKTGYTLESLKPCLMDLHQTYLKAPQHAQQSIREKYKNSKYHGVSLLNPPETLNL
T1 sequence (P20248 whole entry, one chain of several): as above
Sequence of CDC2/cyclinB (P06493 whole entry, species assumed): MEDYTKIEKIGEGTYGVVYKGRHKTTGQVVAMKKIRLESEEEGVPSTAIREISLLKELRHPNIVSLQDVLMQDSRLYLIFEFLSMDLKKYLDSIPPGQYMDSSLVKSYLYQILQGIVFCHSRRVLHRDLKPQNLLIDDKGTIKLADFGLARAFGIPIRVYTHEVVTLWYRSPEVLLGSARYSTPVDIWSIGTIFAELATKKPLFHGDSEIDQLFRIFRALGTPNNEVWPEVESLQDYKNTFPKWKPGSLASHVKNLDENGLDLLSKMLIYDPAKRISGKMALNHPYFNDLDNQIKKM
Sequence of CDC2/cyclinB (P14635 whole entry partner, species assumed): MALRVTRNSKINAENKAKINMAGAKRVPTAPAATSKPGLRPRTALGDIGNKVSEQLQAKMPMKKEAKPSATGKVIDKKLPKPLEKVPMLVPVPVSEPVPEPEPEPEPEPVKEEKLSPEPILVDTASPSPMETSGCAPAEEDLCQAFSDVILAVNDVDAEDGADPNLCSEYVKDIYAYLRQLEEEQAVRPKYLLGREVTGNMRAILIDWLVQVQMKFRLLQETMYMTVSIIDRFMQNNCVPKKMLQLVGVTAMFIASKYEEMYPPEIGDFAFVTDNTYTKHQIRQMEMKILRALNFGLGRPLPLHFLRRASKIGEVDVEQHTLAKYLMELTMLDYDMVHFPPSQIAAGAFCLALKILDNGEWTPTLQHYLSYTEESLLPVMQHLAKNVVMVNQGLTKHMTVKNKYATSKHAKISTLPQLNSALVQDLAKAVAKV
T3 sequence (P20248 whole entry): as the sequence (P20248 whole entry, one chain of several) above
Sequence of CDK5 complexed with p25 (Q00535 whole entry): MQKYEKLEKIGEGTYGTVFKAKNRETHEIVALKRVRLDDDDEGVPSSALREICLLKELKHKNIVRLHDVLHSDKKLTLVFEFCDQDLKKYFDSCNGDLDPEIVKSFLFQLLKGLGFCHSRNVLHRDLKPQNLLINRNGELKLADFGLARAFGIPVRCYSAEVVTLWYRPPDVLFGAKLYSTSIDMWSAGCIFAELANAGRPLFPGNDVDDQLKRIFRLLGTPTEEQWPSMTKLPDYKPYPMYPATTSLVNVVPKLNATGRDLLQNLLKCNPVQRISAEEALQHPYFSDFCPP
Sequence of CDK5 complexed with p25 (Q15078 99-307 partner limits assumed): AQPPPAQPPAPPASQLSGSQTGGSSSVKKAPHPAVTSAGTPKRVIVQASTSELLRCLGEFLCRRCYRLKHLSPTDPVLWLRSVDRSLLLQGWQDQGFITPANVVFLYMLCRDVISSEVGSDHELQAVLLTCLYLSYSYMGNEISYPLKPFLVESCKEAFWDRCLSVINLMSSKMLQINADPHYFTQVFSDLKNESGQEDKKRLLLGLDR

Molecule | peak stimulatory activity (concentration) (CDK2 [1]) | EC50 (CDK2 [1]; read-out: 50% stimulatory concentration of E7) [nM] | binding to beads with immobilized HA-CDK2 (HA-CDK2) | effect on p21- and p27-dependent inhibition of cyclin E/CDK2 activity (CDK2 [2]; histone H1 substrate) | effect on p27 inhibition of CDK2 activity (CDK2 [2]; purified cyclin E/CDK2 and cyclin A/CDK2, solution kinase assay) | binding to beads containing GST-cyclinA (GST-cyclinA) | phosphorylation of HPV E2 by CDK2/cyclinA (cyclin A/CDK2) | MAP kinase 1 activity (MAP kinase 1) | increase in H1 phosphorylation by CDK5 complexed with p25 (CDK5 complexed with p25) [fold] | CDC2/cyclinB activity (CDC2/cyclinB) | increase in cyclinE/CDK2 kinase activity (cyclin E/CDK2) [fold] | increase in pRb kinase activity (cyclin E/CDK2) [fold] | stimulation of cyclin E/CDK2 phosphorylation of MBP-HPV 18 E1 fusion protein (cyclin E/CDK2) [fold] | effect on cyclin A/CDK2 histone H1 kinase activity (cyclin A/CDK2) | Km (cyclin A/CDK2; read-out: Km for histone H1) [µM]
E7: HPV E7 protein or GST-E7 fusion, strain not named at the place; b203 used purified HPV16E7 | approximately 0.29 μM | ~180 | no binding | little or no effect | little or no effect | binding | enhanced |  |  |  |  |  |  |  | 
B1 |  |  |  |  |  |  |  | unaffected | 4.5 | unaffected | 13 | 1.9 | 2.3 | significant effect | 1.1
